The source of these data is paper PMC5025751.

Assay [1] concerns the target Fascin-bundled F-actin filaments (rabbit | not stated) (UniProt P68135). The assay can be described thus: transient kinetics, quenching of pyrene-actin fluorescence; myosin rapidly mixed with MgATP, then with pyrene-labelled actin (0-50 uM; single filaments or fascin bundles) with high MgADP to stop further cycling.
The target in assay [2] is Actin purified from rabbit skeletal muscle (F-actin filaments) (rabbit) (UniProt P68135). The description is as above.
For assay [3], the target named is myosin X anti-parallel coiled-coil (Homo sapiens) (UniProt Q9HD67). The conditions noted are these: cited from earlier work.

With “Human myosin X MD-3IQ-SAH (S1, truncated at Gln 851) (from UniProt Q9HD67 1-851; P0DP23 1-149) (complex)”, the figures for the rate of pyrene-actin fluorescence quenching in assay [1] and in assay [2] were 17 s⁻¹ and 18 s⁻¹, respectively.

Regarding “MyoX-HMM-A938 (truncated human Myo10 HMM, amino acids 1-938, 19 amino-acid linker, Leucine zipper, AVI tag, Flag tag) (from UniProt Q9HD67 1-938; P0DP23 1-149) (complex)”, the rate of pyrene-actin fluorescence quenching in assay [1] was 34 s⁻¹; in assay [2] it was 19 s⁻¹. For orientation: Kd means the equilibrium constant for the complex coming apart. On to “myosin X anti-parallel coiled-coil (from UniProt Q9HD67)”, for which the Kd in assay [3] was 600 nM.
